We go through 19 sequences from the supplement of paper PMC9170038.

The subject of series [1] is MS2 coat protein. Description: apparent KD of MS2 coat protein, switch ON state; designed switch direction (-1 OFF switch, 1 ON switch): -1; higher = weaker reporter binding. The settings on record: FMN input: 0 or 200 uM; Eterna round: R93 (includes R88 designs). A digest of the protocol:
(§1)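 Binding of SNAP-549-labelled MS2 coat protein was measured on designed RNA switches transcribed on-chip from Illumina sequencing clusters. The protein rose in twofold steps from 0.7 or 1.5 nM to 3 µM, with 0.8–1.5 h per step early on and 10–20 min per step later, in 100 mM Tris-HCl pH 7.5, 80 mM KCl, 4 mM MgCl2, without or with constant ligand. Each design's apparent KD is the median of fits to its normalised cluster binding curves.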

Series [2] relates to MS2 coat protein. Description: apparent KD of MS2 coat protein, switch OFF state (with FMN for OFF switches, without FMN for ON switches); designed switch direction (-1 OFF switch, 1 ON switch): -1; higher = weaker reporter binding. As to conditions: FMN input: 0 or 200 uM; Eterna round: R93 (includes R88 designs). In outline: as §1

Regarding “GAAAAGGUAGGAUAUACGAAAAAAAAGGGUAAAAAAUAAAAACAUGAGGAUCACCCAUGUAGAAGGACCAAAAG [Mat - Exclusion 2 - Tesla mod - D40]”, the “apparent KD of MS2 coat protein” value in series [1] worked out at 28.8 nM; in series [2], 55.3 nM.

On to “GAAAAGUCAGGAUAUGCAGACAAAGCAAAAAAGCAAUGUCUGCAGAAGGGACAUGAGGAUCACCCAUGUAAAAG [Mat - Exclusion 4 - Mayanna - D116]”, for which the “apparent KD of MS2 coat protein” value in series [1] is 61.1 nM; in series [2] it was 70.1 nM.

With “GAAAAGUCAGGAUAUGUGGAAAAAAUAAAAAAAAUAAAAACACAGAAGGGACAUGAGGAUCACCCAUGUUAAAG [Mat - Exclusion 4 - Mayanna - D138]”, the entries for the “apparent KD of MS2 coat protein” value in series [1] and in series [2] were 41.5 nM and 32.5 nM, respectively.

Turning to “GAAAAGUGAGGAUAUACAUGAGGAUCACCCAUGUGUAUAAAAAAAUACACAAAAGAAAGUAGAAGGCACUAAAA [Mat - Exclusion 3 - Mayanna mod - D111]”, the “apparent KD of MS2 coat protein” value in series [1] worked out at 25.8 nM; in series [2], 65.9 nM.

As to “GAAUGCAGAGGAUAUACGGGAUAGCAUCGAAAGAUGCUAAAACAUGAGGAUCACCCAUGUAGAAGGCUGCAGAA [JL Mod 02]”, the “apparent KD of MS2 coat protein” value in series [1] amounted to 58 nM; in series [2], 144 nM.

Consider “GAUAGUGAAGGAUAUACUGGAGGAGUGCGAUAAAAGAAAGAACAUGAGGAUCACCCAUGUAGAAGGUCAGAAGU [JR_Exc002_Sub1226]”, for which the figures for the “apparent KD of MS2 coat protein” value in series [1] and in series [2] were 24.7 nM and 27.3 nM, respectively.

In the case of “GAUGAGUGAGGAUAUGUAAAAAAAAGAGAAGAGAAGAGAGAACAGAAGGCACAUGAGGAUCACCCAUGUAGGGA [Default title]”, the “apparent KD of MS2 coat protein” value in series [1] is 226 nM; in series [2], 322 nM.

In the case of “GGAAAACAUGAGGAUCACCCAUGUAAGGAUAUGCAAAAAAAAAAGGAUAUAGAAGGAAGCAGAAGGUACAAAGG [salish99-ex1-28]”, the entries for the “apparent KD of MS2 coat protein” value in series [1] and in series [2] were 24.5 nM and 55.1 nM, respectively.

Consider “GGAAAACAUGAGGAUCACCCAUGUAAGGAUAUGCUAGGGAAGGAAAAAAACCCACCAGGCAGAAGGUACUAAAG [Janelle Amethyst 18 Mod 5 - Jieux - Exclusion 1]”, for which the “apparent KD of MS2 coat protein” value in series [1] was found to be 22.9 nM; in series [2] it was 41.4 nM.

For “GGAAAGCGAGGAUAUACAUGAGGAUCACCCAUGUUAACAAACAAACAAACAAACAAAAGUAGAAGGCGCAAAAU [Exclusion 3 This and That]”, the “apparent KD of MS2 coat protein” value in series [1] is 42.6 nM; in series [2], 41.1 nM.

Consider “GGGUGGCGAGGAUAUACAUGAGGAUCACCCAUGUGAGAGAAAAAAGUGAGAAAGAAAAGUAGAAGGCGCUGCCG [salish99-ex3-56]”, for which the entries for the “apparent KD of MS2 coat protein” value in series [1] and in series [2] were 47.9 nM and 329 nM, respectively.

For “GGUUGGCGAGGAUAUACAUGAGGAUCACCCAUGUGAGAGAAUAAAGUGAGAAAGAAAAGUAGAAGGCGCUGACG [salish99-ex3-44]”, the “apparent KD of MS2 coat protein” value in series [1] came to 63.7 nM; in series [2], 116 nM.

For “GGUUGUCGAGGAUAUACAUGAGGAUCACCCAUGUGAGAGAAAAAAGUGAGAAAGAAAAGUAGAAGGCGAUGACG [salish99-ex3-58]”, the “apparent KD of MS2 coat protein” value in series [1] worked out at 38.2 nM; in series [2], 180 nM.

As to “GUAGAGUGAGGAUAUGAAUAAAAGAAGAGAAAGAGAAAGCAUCAGAAGGCACAUGAGGAUCACCCAUGUAUGAA [JR_Exc004_Sub1225]”, the results for the “apparent KD of MS2 coat protein” value in series [1] and in series [2] were 29.2 nM and 25.3 nM, respectively.

As to “GUGUACAGAGGAUAUACUAAAGCUAGGAAACUAGCAAGAUCACAUGAGGAUCACCCAUGUAGAAGGCUGUACAC [Ex2: 740]”, the entries for the “apparent KD of MS2 coat protein” value in series [1] and in series [2] were 58.1 nM and 500 nM, respectively.

“UAAAAACAUGAGGAUCACCCAUGUGAGGAUAUACGAAAGUAGAAGGCACUAAAAUAAAAUAGAAGGAUAAAAUA [Meechl Ex1 R2 m1]”: the “apparent KD of MS2 coat protein” value in series [1] is 23.2 nM; in series [2], 37.5 nM.

“UAAAAACAUGAGGAUCACCCAUGUGAGGAUAUGUGAAAAAAAAAAAAAAAAAAAACAAGCAGAAGGCACAAAAA [JR_Exc001_Sub020]”: the “apparent KD of MS2 coat protein” value in series [1] stood at 67.6 nM; in series [2] it was 584 nM.

Consider “UACGGACAUGAGGAUCACCCAUGUGAGGAUAUCGAUACCGAUAGCAUAAUAUAAUCGGCGAGAAGGCACAGCGU [JR_Exc001_Sub505]”, for which the “apparent KD of MS2 coat protein” value amounted to 39.9 nM in series [1] and 54.7 nM in series [2].

As for “UUUAUGUGAGGAUAUCAGUAGUAAAAAAAUAAAAUUACUACUGAGAAGGCACAUGAGGAUCACCCAUGUGUCUC [EX4 350: Super Stable 50]”, the “apparent KD of MS2 coat protein” value in series [1] turned out to be 17.5 nM; in series [2], 15 nM.
